# Measurements from patent US5690954A, “Enhanced uptake drug delivery system having microspheres containing an active drug and a bioavailability improving material” (priority 1987, dated 1997).
# Key:
# [1] = Comparative studies: nasal insulin with various materials with and without starch microspheres; type: in vivo; conditions: sheep; for decrease in plasma glucose and increase in absorption versus starch microspheres alone: nasal powder
# Experimental: A series of studies were carried out to determine the effect on the administration of insulin of various enhancers with and without microsphere particles. All of the studies were carried out in sheep and the insulin was administered intranasally either in solution or powder formulation. The preparation of the various insulin formulations and the method of administration and result taking were all as described earlier.
# [2] = Bioavailability enhancement by microspheres plus bioavailability increasing material (general statement); conditions: microspheres with lysophosphatidylcholine
# Description: The material selected for these studies has been lysophosphatidylcholine (described above).
# [3] = without enhancer; cited from earlier work
# [4] = intranasal with Laureth 9; cited from earlier work
# [5] = nasal, sodium deoxycholate; cited from earlier work
# [6] = dogs, powder with cellulosic material and Carbopol 934; cited from earlier work
# [7] = rats, nasal polyacrylic acid gel, versus normal formulation; cited from earlier work
# [8] = Insulin nasal in sheep, plasma glucose and plasma insulin
# [9] = intranasal simple solution, 2 IU/kg
# [10] = intranasal solution with 0.2% LPC
# [11] = intranasal starch microspheres and LPC
# [12] = intranasal starch microspheres and LPC, 2 IU/kg
substance,measurement,setting,value
insulin: Zn-crystallized highly purified semisynthetic human insulin (sheep studies),shape of absorption profile,[1]; nasal,sharp peak
same,plasma glucose level versus insulin in GDC solution,"[1]; nasal 2 IU/kg, GDC 0.08 mg/kg and starch microspheres 2.5 mg/kg",decreased considerably more
same,absorption (plasma insulin levels),"[1]; nasal 2 IU/kg, GDC and starch microspheres",enhanced absorption
same,decrease in plasma glucose and increase in absorption versus starch microspheres alone,[1]; starch microspheres with N-acetyl cysteine,considerably increased
same,decrease in plasma glucose and increase in absorption versus starch microspheres alone,[1]; starch microspheres with aprotinin,considerably increased
same,effect on plasma glucose levels versus LPC-M alone in solution,"[1]; nasal, LPC-M and starch microspheres",considerably increased effect
same,"enhancement concept, outcome",[2],successful
same,absorption efficiency across the nasal membrane,[3],about 1.2 % of the administered dose
same,appearance of peak level,[4],rapidly
same,dose response,[4],clear dose response relationship
same,effect of increasing amounts of bile salt on absorption,[5],striking effect
same,absorption after nasal application,[6],increase the absorption
same,plasma glucose levels,[7],significant decrease
same,shape of plasma glucose profile versus intravenous insulin,[8]; intranasal insulin-microsphere-enhancer system,very similar to the one obtained for the intravenous insulin
same,amount of insulin absorbed,[8]; [9],very low
same,effect on plasma glucose level,[8]; [9],does not have a significant effect
same,amount of insulin appearing in the circulation,[8]; [10],increases the amount of insulin appearing in the circulation
same,plasma glucose level,[8]; [10],somewhat lower
same,decline of insulin level after peak,[8]; [11],decreases rapidly as for intravenous insulin
same,relative bioavailability versus subcutaneous injection,[8]; [11],about 25%
same,time of peak insulin level,[8]; [11],15 to 20 min
same,increase in AUC of plasma insulin versus simple nasal solution,[8]; [12],693%
same,increase in peak insulin level versus simple nasal solution,[8]; [12],1040%
